{"source": "patent US12076390", "about": "(Dana-Farber, dated 2024)", "binders": {"B1": {"name": "3I14 VLD94N IgG1 (antibody, V domains shown)", "VH": "QVQLLESGGGVVQPGRSLRLSCAASGFTFSNYGMHWVRQAPGKGLEWVAIISFDGSKKYYANSVKGRSTISRDNSKNTLSLQMNSLGPEDTALYYCAKLPSPYYFDSRFVWVAASAFHFWGQGILVTVSS", "VL": "NFMLTQPPSASGTPGQRVTISCSGSSSNIGGNTVHWFQQLPGTAPKLLIYTNSLRPSGVPDRFSGSKSGTSASLAISGLQSEDEADYYCAAWDNSLNGQVFGGGTKLTVL"}}, "molecular_target": "HA on infectious virus A/Brisbane/10/07 (H3N2-BR07) (influenza A virus A/Brisbane/10/07 …)", "assay": "cell-based or functional assay"}
{"binder": "B1", "values": [{"measurement": "IC50, neutralization of infectious H3-BR07 virus", "value": 0.337, "unit": "µg/mL"}]}
